Measurements taken from patent US20230174623A1 (MIT, published 2023).

B1: Lumican-Gluc (His-tagged murine lumican fused to Gaussia luciferase) (other)
chain: QYYDYDIPLFMYGQISPNCAPECNCPHSYPTAMYCDDLKLKSVPMVPPGIKYLYLRNNQIDHIDEKAFENVTDLQWLILDHNLLENSKIKGKVFSKLKQLKKLHINYNNLTESVGPLPKSLQDLQLTNNKISKLGSFDGLVNLTFIYLQHNQLKEDAVSASLKGLKSLEYLDLSFNQMSKLPAGLPTSLLTLYLDNNKISNIPDEYFKRFTGLQYLRLSHNELADSGVPGNSFNISSLLELDLSYNKLKSIPTVNENLENYYLEVNELEKFDVKSFCKILGPLSYSKIKHLRLDGNPLTQSSLPPDMYECLRVANEITVNGGGSGGGSGGGSKPTENNEDFNIVAVASNFATTDLDADRGKLPGKKLPLEVLKEMEANARKAGCTRGCLICLSHIKCTPKMKKFIPGRCHTYEGDKESAQGGIGEAIVDIPEIPGFKDLEPMEQFIAQVDLCVDCTTGCLKGLANVQCSDLLKKWLPQRCATFASKIQGQVDKIKGAGGDGGGSHHHHHH
notes: Expressed in HEK293 cells, 56.6 kDa; also called Lum GLuc
B2: extracellular domain of His-tagged murine LAIR-1 (receptor)
chain: QEGSLPDITIFPNSSLMISQGTFVTVVCSYSDKHDLYNMVRLEKDGSTFMEKSTEPYKTEDEFEIGPVNETITGHYSCIYSKGITWSERSKTLELKVIKENVIQTPAPGPTSDTSWLKTYSIYHHHHHH
notes: The entry includes the C-terminal His tag; Expressed in HEK293 cells; also called mLAIR1-His; mLAIR1
B3: ColG s3a/s3b-Gluc (bacterial collagenase ColG domains s3a/s3b fused to Gaussia luciferase, His-tagged) (other)
chain: PITKEMEPNDDIKEANGPIVEGVTVKGDLNGSDDADTFYFDVKEDGDVTIELPYSGSSNFTWLVYKEGDDQNHIASGIDKNNSKVGTFKSTKGRHYVFIYKHDSASNISYSLNIKGLGNEKLKEKENNDSSDKATVIPNFNTTMQGSLLGDDSRDYYSFEVKEEGEVNIELDKKDEFGVTWTLHPESNINDRITYGQVDGNKVSNKVKLRPGKYYLLVYKYSGSGNYELRVNGGGSGGGSGGGSKPTENNEDFNIVAVASNFATTDLDADRGKLPGKKLPLEVLKEMEANARKAGCTRGCLICLSHIKCTPKMKKFIPGRCHTYEGDKESAQGGIGEAIVDIPEIPGFKDLEPMEQFIAQVDLCVDCTTGCLKGLANVQCSDLLKKWLPQRCATFASKIQGQVDKIKGAGGDGGGSHHHHHH
notes: Expressed in HEK293 cells, 46.1 kDa; also called ColG-Gluc; ColG s3s/s3b-Gluc
B4: LAIR30.2.K1.B displayed on yeast (Aga2 fusion with c-myc tag) (receptor)
chain: QEGSLPDITIFPNSSLVISQGTFVTVVCSYSDKHDLYNMVRLEKDGSTFMEKSTAPYKTEDEFEIGPVNETITGHYSCIYSKGITWSERSKTLELKVIKENVIQTPAPGPTSDTLWLKTYSIY
notes: not shown: Aga2 protein of yeast, display anchor of the pCTCON2 vector; c-myc tag after the LAIR gene
B5: His-tagged biotinylated lumican (other)
chain: QYYDYDIPLFMYGQISPNCAPECNCPHSYPTAMYCDDLKLKSVPMVPPGIKYLYLRNNQIDHIDEKAFENVTDLQWLILDHNLLENSKIKGKVFSKLKQLKKLHINYNNLTESVGPLPKSLQDLQLTNNKISKLGSFDGLVNLTFIYLQHNQLKEDAVSASLKGLKSLEYLDLSFNQMSKLPAGLPTSLLTLYLDNNKISNIPDEYFKRFTGLQYLRLSHNELADSGVPGNSFNISSLLELDLSYNKLKSIPTVNENLENYYLEVNELEKFDVKSFCKILGPLSYSKIKHLRLDGNPLTQSSLPPDMYECLRVANEITVNGGGSHHHHHH
modifications: biotinylated (site not stated)
notes: also called Lwt-His-b; Lwt-HIS-b
B6: lumican (purified His-tagged murine lumican, not biotinylated) (other)
chain: B5 chain
notes: also called Lwt

Assays:
[1] = molecular target: collagen type IV (collagen IV coated 96 well-plates, Corning); assay: ELISA, collagen IV coated plate, anti-6xHis-HRP detection
[2] = molecular target: collagen type IV (collagen IV coated 96 well-plates, Corning); assay: ELISA on collagen IV coated plate, anti-6xHis-HRP
[3] = molecular target: T1, collagen type I (collagen I coated 96 well-plates, Gibco); assay: ELISA, collagen I coated plate, anti-6xHis-HRP detection
T1 construct: also called collagen type 1
T1 sequence (P02454 152-1207, chain 1 of 2): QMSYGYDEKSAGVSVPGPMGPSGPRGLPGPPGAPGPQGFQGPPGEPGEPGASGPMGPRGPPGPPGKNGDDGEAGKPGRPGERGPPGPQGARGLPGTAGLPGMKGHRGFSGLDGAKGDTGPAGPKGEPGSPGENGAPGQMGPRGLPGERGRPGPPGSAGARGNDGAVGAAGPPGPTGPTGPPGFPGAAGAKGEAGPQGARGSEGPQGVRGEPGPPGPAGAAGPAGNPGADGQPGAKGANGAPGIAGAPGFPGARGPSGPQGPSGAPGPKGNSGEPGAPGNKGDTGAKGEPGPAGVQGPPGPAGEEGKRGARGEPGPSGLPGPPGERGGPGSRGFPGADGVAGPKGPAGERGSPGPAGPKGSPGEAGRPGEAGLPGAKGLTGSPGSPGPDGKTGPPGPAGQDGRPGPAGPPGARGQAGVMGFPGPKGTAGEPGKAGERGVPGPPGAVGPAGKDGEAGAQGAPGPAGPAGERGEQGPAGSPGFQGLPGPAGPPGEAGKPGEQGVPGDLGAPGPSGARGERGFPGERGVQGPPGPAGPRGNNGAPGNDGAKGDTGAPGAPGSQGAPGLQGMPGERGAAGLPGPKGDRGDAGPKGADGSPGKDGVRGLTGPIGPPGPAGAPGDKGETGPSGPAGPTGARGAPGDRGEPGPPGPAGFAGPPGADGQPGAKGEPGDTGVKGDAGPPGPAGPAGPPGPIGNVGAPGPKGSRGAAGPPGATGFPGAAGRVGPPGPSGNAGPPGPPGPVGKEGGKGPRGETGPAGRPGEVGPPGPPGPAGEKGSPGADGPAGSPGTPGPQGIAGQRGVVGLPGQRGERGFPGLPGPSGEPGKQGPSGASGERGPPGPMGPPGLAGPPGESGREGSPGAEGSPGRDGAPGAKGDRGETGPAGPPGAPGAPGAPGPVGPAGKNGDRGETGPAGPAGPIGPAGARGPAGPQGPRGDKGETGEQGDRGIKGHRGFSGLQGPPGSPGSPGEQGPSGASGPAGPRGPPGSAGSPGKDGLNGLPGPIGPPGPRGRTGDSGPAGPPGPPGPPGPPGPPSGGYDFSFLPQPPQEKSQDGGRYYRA
T1 sequence (P02466 86-1125, chain 2 of 2, further chain): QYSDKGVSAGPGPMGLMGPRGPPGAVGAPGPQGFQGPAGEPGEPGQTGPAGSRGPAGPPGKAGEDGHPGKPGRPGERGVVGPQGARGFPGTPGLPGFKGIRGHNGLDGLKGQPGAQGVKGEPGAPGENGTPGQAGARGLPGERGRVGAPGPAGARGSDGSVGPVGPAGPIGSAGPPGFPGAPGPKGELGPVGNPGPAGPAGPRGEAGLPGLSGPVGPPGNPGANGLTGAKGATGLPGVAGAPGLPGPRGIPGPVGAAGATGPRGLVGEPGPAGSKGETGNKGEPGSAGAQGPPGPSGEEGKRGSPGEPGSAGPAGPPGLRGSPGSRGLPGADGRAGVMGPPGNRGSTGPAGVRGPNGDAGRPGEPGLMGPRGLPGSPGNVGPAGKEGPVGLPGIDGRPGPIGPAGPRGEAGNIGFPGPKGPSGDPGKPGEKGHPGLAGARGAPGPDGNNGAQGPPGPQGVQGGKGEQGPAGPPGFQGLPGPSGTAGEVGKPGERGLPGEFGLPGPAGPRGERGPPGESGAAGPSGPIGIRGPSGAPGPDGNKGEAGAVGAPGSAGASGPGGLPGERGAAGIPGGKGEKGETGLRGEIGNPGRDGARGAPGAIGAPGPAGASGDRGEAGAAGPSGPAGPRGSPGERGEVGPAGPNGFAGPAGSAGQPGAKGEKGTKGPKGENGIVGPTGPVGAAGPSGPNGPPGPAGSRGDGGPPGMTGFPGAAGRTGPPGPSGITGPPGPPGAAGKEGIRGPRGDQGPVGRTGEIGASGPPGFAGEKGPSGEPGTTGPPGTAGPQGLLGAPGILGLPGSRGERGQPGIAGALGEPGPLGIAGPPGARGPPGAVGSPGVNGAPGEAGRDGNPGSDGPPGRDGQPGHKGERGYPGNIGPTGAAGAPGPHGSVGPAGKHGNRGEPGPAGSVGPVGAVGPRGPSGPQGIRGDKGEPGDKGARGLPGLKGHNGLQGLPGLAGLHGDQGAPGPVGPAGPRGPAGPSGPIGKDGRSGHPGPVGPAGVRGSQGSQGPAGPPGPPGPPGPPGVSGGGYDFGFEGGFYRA

[4] = molecular target: T1, collagen type I (collagen I coated 96 …); assay: ELISA on collagen I coated plate, anti-6xHis-HRP
[5] = molecular target: T1, collagen type I (collagen I coated 96 …); assay: competition ELISA on collagen I; 50 nM biotinylated lumican detected with streptavidin-HRP, rmLAIR1 varied
[6] = molecular target: T2, bovine serum albumin (plate blocked with BSA) (bovine, UniProt P02769 25-607); assay: ELISA on a plate blocked with bovine serum albumin, anti-His-HRP detection
T2 construct: Specificity control surface
T2 sequence (P02769 25-607 limits assumed): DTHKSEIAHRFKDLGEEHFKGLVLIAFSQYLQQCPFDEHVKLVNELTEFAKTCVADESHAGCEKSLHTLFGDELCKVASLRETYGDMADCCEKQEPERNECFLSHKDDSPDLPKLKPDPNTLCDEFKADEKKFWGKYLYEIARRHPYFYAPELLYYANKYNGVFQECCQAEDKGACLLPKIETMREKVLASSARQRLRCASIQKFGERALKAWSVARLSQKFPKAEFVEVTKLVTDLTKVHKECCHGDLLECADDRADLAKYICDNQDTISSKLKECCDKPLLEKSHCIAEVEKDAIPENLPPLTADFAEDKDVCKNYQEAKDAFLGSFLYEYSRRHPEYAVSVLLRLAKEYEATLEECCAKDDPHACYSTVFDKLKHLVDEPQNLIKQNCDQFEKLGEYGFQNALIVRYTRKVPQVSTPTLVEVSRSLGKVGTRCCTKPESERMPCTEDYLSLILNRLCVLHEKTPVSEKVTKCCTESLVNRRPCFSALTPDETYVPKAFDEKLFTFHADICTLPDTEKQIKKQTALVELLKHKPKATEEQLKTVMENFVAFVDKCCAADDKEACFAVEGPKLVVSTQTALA

[7] = molecular target: T1, collagen type I (collagen I coated 96 …); assay: ELISA on collagen I, anti-His-HRP
[8] = molecular target: T3, CRP-XL-biotin (crosslinked collagen related peptide, biotinylated) (O represents hydroxyproline (all O positions); C-terminal amide (NH2); chains crosslinked to lock the helical structure; biotinylated (site not stated)); assay: kinetic dissociation at 37 C on yeast, MFI of bound CRP-XL-biotin during competition with excess CRP-XL, one-phase exponential decay fit
T3 construct: also called CPP-XL-biotin; soluble collagen peptide mimic
T3 sequence (peptide, as listed by the source limits assumed): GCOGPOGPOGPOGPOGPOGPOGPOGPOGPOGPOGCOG

[9] = molecular target: T1, collagen type I (collagen I coated 96 …); assay: ELISA on collagen I after thawing from frozen, with excipients; data not shown

Binder	Kd [3]	binding result [6]	EC50 (read off the curve) [7]	also measured
B1	130 nM	–	–	Kd [1]: 600 nM; EC50 (read off the curve) [2]: ~60 nM; EC50 (read off the curve) [4]: ~60 nM
B2	–	no binding	~20 nM	IC50 (read off the curve) [5]: ~300 nM
B3	139 nM	–	–	–
B4	–	–	–	koff [8]: 4.17e-06 s⁻¹
B5	–	no binding	~20 nM	–
B6	–	–	–	fold reduction of binding affinity if lumican was not warmed to 37° C. prior to measurement [9]: ~50 fold
